From patent US20220380455A1 (Alector, published 2022)
Several values for one entry are separate records, joined by “and”; a condition that tells them apart may be missing. Equal entries are not always repeated.

T1: MS4A6A ECL1 peptide (human)
T1 construct: the description elsewhere gives ECL1 as 68-84; Human and cyno ECL1 are said to be identical
T1 peptide: SASFSPNFTQVTSTLLNS

T2: MS4A6A ECL2 peptide (human)
T2 construct: also called MS4A6A ECL-2 peptides
T2 peptide: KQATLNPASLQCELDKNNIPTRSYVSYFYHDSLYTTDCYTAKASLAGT

T3: cynomolgus (cyno) MS4A6A (cynomolgus, UniProt Q9H2W1 1-246 (human entry))
T3 construct: Full-length protein expressed in transfected HEK293, U937 or K562 cells (flow cytometry)
T3 chain: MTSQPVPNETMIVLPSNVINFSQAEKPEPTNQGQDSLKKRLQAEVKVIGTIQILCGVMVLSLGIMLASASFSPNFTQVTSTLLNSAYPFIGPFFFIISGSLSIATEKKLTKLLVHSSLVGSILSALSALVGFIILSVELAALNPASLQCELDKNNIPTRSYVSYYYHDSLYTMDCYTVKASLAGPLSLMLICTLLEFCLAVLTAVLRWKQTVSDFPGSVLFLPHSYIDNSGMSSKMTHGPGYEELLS

T4: BSA-MS4A6A-ECL2 peptide (human, BSA-conjugated)
T4 construct: Synthetic peptide derived from ECL2, conjugated to BSA, coated on the ELISA plate; also called MS4A6A-ECL2 BSA conjugated peptide; BSA-MS4A6A-ELC2 peptide
T4 peptide: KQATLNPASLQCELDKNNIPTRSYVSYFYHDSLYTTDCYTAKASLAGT


Experiments:
MS4A6A ECL1 peptide [1] = molecular target: T1, MS4A6A ECL1 peptide; test: array SPR (Carterra MX-96), antibody captured, peptide injected
Description: (§1) Binding kinetic characterization of the purified antibodies to MS4A6A ECL1 and ECL2 peptides was performed by Carterra (South San Francisco, Calif.) using a proprietary array Surface Plasmon Resonance (SPR) instrument (MX-96) as follows. Antibodies were printed onto a CMD5OOD chip (Xantec #SPMX CMD500D lot #SC CMD500D0117.a Exp. 31.12.18) using the Continuous Flow Microspotter (CFM). First, the chip was activated with 100 mM MES pH 5.5, 100 μL EDC (133 mM final), 100 μL of S-NHS (33.3 mM final), for 7 minutes. A lawn of anti-mouse IgG-Fc (Jackson ImmunoResearch CAT #115-005-071 lot#130410) was injected for 15 minutes to establish a surface density of 10000-12000 RU, after which the chip surface was deactivated with 1 M ethanolamine at pH 8.5 for 10 minutes. Anti-MS4A6A antibodies in question, in the form of hybridoma supernatants diluted 2:1 with HBS-EP+buffer (Teknova CAT #H8022), were then printed as duplicates with a 20 minute and a 5 minutes print from the same sample solution. Control antibodies were diluted to 20 μ/ml for printing.
(§2) To perform kinetic analysis, the peptides in question were prepared in HBS-EP+buffer with lmg/ml BSA at final assay concentrations of 2000 nM, 400 nM, 80 nM, 16 nmM, and 3.2 nM. These were then injected on the chip for five minutes, followed by a seven-minute dissociation period at 8 uL per second in a non-regenerative kinetic series. Duplicate measurements for each anti-MS4A6A antibody were taken to ensure reproducibility.
(§3) Kₐ (association rate constant; Kₒₙ), Kd (dissociation rate constant; Koff) and KD (equilibrium constant) to MS4A6A ECL-2 peptides were calculated for each of the 23 anti-MS4A6A antibodies tested, the results of which are shown below in Table 5 (clones that bound too weakly to determine these values are denoted as N/A in Table 5).

MS4A6A ECL2 peptide [2] = molecular target: T2, MS4A6A ECL2 peptide; test: array SPR (Carterra MX-96), antibody captured on anti-mouse IgG-Fc, ECL2 peptide injected
Description: as §1, §2, §3

cynomolgus (cyno) MS4A6A [3] = molecular target: T3, cynomolgus (cyno) MS4A6A; test: flow cytometry, hybridoma supernatant, HEK293 transfected with cyno MS4A6A over parental HEK293; Screen 1
Description: (§4) Positive clones were expanded and then rescreened for specificity against HEK293 cells overexpressing cyno MS4A6A and parental HEK293 cells. Briefly, previously prepared, cryopreserved transiently-transfected cells were labeled with LIVE/DEAD Fixable Aqua Dead Cell Stain Kit (ThermoFisher Scientific L34957) on ice for 30 minutes. After a wash with PBS, 2×10⁵ cells were aliquoted per well in 96-well round bottom plates and incubated with 50 μl of culture supernatant on ice for 30 mins. […] Following this secondary incubation, the cells were again washed twice with ice-cold FACS buffer and resuspended in a final volume of 200 μl of FACS buffer. Analysis was performed on a FACS Canto system (BD Biosciences), with sort gates drawn to exclude dead (Aqua-positive) cells. […] The screen was repeated twice, and the numbers reported here represent the ratio of mean fluorescence level in transfected cells over parental cells.

cynomolgus (cyno) MS4A6A [4] = molecular target: T3, cynomolgus (cyno) MS4A6A; test: flow cytometry, hybridoma supernatant, HEK293 transfected with cyno MS4A6A over parental HEK293; Screen 2
Description: as §4

MS4A6A ECL1 peptide [5] = molecular target: T1, MS4A6A ECL1 peptide; test: peptide ELISA, hybridoma supernatant
Description: (§5) Anti-MS4A6A hybridoma supernatants were tested for binding to MS4A6A peptides derived from ECL1 (amino acid residues 68-85 of human MS4A6A of SEQ ID NO:1) and ECL2 (amino acid residues 138-185 of human MS4A6A of SEQ ID NO:1) sequences, using an enzyme-linked immunosorbent assay (ELISA). Briefly, 96-well polystyrene plates were coated with 1-10 μg/mL of synthetic free or BSA-conjugated peptides in coating buffer (0.05M carbonate buffer, pH9.6, Millipore Sigma C3041) overnight at 4° C. Coated plates were then blocked with ELISA diluent (PBS+0.5% BSA+0.05% Tween20) for 1-hour, washed 3×300 μL in PBST (PBS+0.05% Tween20, Thermo 28352), and then the antibodies were added at various dilutions (100-1000×) in ELISA diluent. After 30 mins incubation (room temperature, with shaking), the plates were washed 3×300 μl in PBST. A secondary anti-mouse HRP antibody (Jackson Immunoresearch CAT #115-035-003) was added at a 1:1000 dilution in ELISA diluent (50 μL/well) and incubated for 30 minutes at room temperature with shaking. After a final set of washes (3×300 μl in PBST), 50 μL of TMB substrate (BioFx TMBW-1000-01) was added and the reaction was then quenched after 5-10 mins with 50 μL of stop solution (BioFx BSTP-1000-01). The quenched reaction wells were detected for absorbance at […] with a BioTek Synergy Microplate Reader using GENS 2.04 software.

BSA-MS4A6A-ECL2 peptide = molecular target: T4, BSA-MS4A6A-ECL2 peptide; test: peptide ELISA, hybridoma supernatant
Description: as §5

MS4A6A ECL2 peptide [6] = molecular target: T2, MS4A6A ECL2 peptide; test: array SPR (Carterra MX-96), antibody captured, peptide injected; both duplicates N/A
Description: as §1, §2, §3

Binder | binding result (MS4A6A ECL1 peptide [1]) | Kd (MS4A6A ECL2 peptide [2]) | koff (MS4A6A ECL2 peptide [2]) | kon (MS4A6A ECL2 peptide [2]) | ratio of APC MFI on MS4A6A+/HEK parental cells (cynomolgus (cyno) MS4A6A [3]) [ratio] | ratio of APC MFI on MS4A6A+/HEK parental cells (cynomolgus (cyno) MS4A6A [4]) [ratio] | binding result (MS4A6A ECL1 peptide [5]) | binding result (BSA-MS4A6A-ECL2 peptide) | binding result (MS4A6A ECL2 peptide [6])
6A-3 (antibody, V domains shown, Mouse hybridoma antibody, tested as hybridoma supernatant (mouse IgG, detected or captured via anti-mouse IgG Fc); also called anti-MS4A6A antibody 6A-3) VH: EVQLQQSGPELVKPGASVKMSCKASGYTFTDYFMKWVKQSHGKSLEWIGDINPKNGDTFYNQKFKGKATLTVDKSSSTAYMQLNSLTSEDSAVYYCARPGYFDVWGAGTTVTVSS VL: not shown | no binding (tested: 2000 nM) | 120 nM and 94 nM | 0.0006 s⁻¹ and 0.00065 s⁻¹ | 4800 M⁻¹ s⁻¹ and 6800 M⁻¹ s⁻¹ | 24.1 | 63.7 | – | – | –
6A-23 (antibody, V domains shown, Mouse hybridoma antibody, tested as hybridoma supernatant (mouse IgG, detected or captured via anti-mouse IgG Fc); also called anti-MS4A6A antibody 6A-23) VH: EVNLEESGGDLVQPGGSMKLSCLASGFTFSDAWMDWVRQSPEKGLEWVAEIKNKANNYVTFYAASVKGRFTISRDDSKSSVYLQMNSLRLEDTGIYFCTRGSVYGNWFPYWGQGTLVTVSA VL: DIVMSQSPSSLAVSAGEKVTMTCKSSQSLFNSRTRKNYLTWYQQKPGQSPKVLIYWASTRESGVPDRFTGSGSGTDFSLTINSVQADDLAVYYCKQSYNLLTFGAGTKLELK | – | 120 nM and 150 nM | 0.00065 s⁻¹ and 0.0008 s⁻¹ | 5400 M⁻¹ s⁻¹ and 5500 M⁻¹ s⁻¹ | 156 | 82 | no binding | – | –
6A-2 (antibody, V domains shown, Mouse hybridoma antibody, tested as hybridoma supernatant (mouse IgG, detected or captured via anti-mouse IgG Fc); also called anti-MS4A6A antibody 6A-2) VH: DVQLQESGPGLVKPSQSLSLTCSVTGYSITSGYYWNWIRQFPGNKLEWLGYITYDGDTDYNPSLKNRVSITRDTSKNQFFLNLISVTPEDTATYYCAREDSFGYWGQGTLVTVSA VL: not shown | no binding (tested: 2000 nM) | 200 nM and 120 nM | 0.001 s⁻¹ and 0.00098 s⁻¹ | 5300 M⁻¹ s⁻¹ and 8300 M⁻¹ s⁻¹ | 25.7 | 75.5 | – | – | –
6A-4 (antibody, V domains shown, Mouse hybridoma antibody, tested as hybridoma supernatant (mouse IgG, detected or captured via anti-mouse IgG Fc); also called anti-MS4A6A antibody 6A-4) VH: EVQLQQSGPELVKPGASVKISCKASGYSFTGYYMHWVKQSPEDSLEWIGAINPSTGGSTYSQKFKDKATLTVDKSSSTAYMQLKSLTSEESAVYYCTRFDGYGYWGQGTLVTVSA VL: DIVMTQAAFSNPVTLGTSASISCRSSKSLLHSNGITYLYWYLQKPGQSLQLLIYQMSNLASGVPDRFSGSGSGTDFTLRISRVEAEDVGVYYCAQNLELPWTFGGGTKLEIK | – | – | – | – | 5.4 | 16.2 | no binding | no binding | no binding (tested: 2000 nM)
6A-6 (antibody, V domains shown, Mouse hybridoma antibody, tested as hybridoma supernatant (mouse IgG, detected or captured via anti-mouse IgG Fc); also called anti-MS4A6A antibody 6A-6) VH: QIQLVQSGPELKKPGESVKISCKASGYTFANYGMNWVKLAPGKGLKWMGYINIYSGKSRYADDFKGRFAFSLETSASTAYLQINNLKNEDMATYFCARDNDYFDYWGQGTTLTVSS VL: DIVLTQSPATLSVTPGDTVSLSCRASQSISDNLHWYQQKSHESPGLLIKYASQSISGIPSRFSGRGSGTDFTLSINSVDSEDFGVYFCQQSNSWPYTFGGGTKLEIK | – | – | – | – | 13.5 | 62.1 | no binding | binds | –
6A-7 (antibody, V domains shown, Mouse hybridoma antibody, tested as hybridoma supernatant (mouse IgG, detected or captured via anti-mouse IgG Fc); also called anti-MS4A6A antibody 6A-7) VH: QVQLQQSGAELARPGASVKMSCKASGYTFTSYAMHWVKQRPGQGLEWIGYINPSSGYTYYNQKFKDKATLTADKSSSTAYMQLSSLTSEDSAVYYCARSYYGNYEGYLDVWGAGTTVTVSS VL: NIVLTQSPASLAVSLGQRATISCRASESVESYGKSFIHWYQQKPGQPPKLLIFLASNLESGVPARFSGSGSRTDFTLTIDPVEADDAATYYCQQNNVGPYTFGGGTKLEIK | – | – | – | – | 3.6 | 8.3 | no binding | no binding | no binding (tested: 2000 nM)
6A-8 (antibody, V domains shown, Mouse hybridoma antibody, tested as hybridoma supernatant (mouse IgG, detected or captured via anti-mouse IgG Fc); also called anti-MS4A6A antibody 6A-8) VH: QVQLQQSGAELARPGTSVKLSCKASGYTFTDYYINWVKQRNGQGLEWIGEIYPRSGNAYYNEKFRGKATLTTDKSSSTAYMQLSGLTSEDSAVYFCARGDGNWYFDVWGAGTTVIVSS VL: DIVMTQSPSSLSVSAGEKVTMSCKSSQSLLNSGDQENYLVWYQQKPGQPPKLLIYGASTRESGVPDRFTGSGSGTDFTLTISSVLAEDLAVYYCQSDHSYPLTFGAGTKLELK | – | 170 nM | 0.001 s⁻¹ | 6300 M⁻¹ s⁻¹ | 26.7 | 69.5 | no binding | – | –
6A-10 (antibody, V domains shown, Mouse hybridoma antibody, tested as hybridoma supernatant (mouse IgG, detected or captured via anti-mouse IgG Fc); also called anti-MS4A6A antibody 6A-10) VH: QIQLVQSGPELKKPGETVKISCKASGYTFTNYGMNWVKQAPGKGLKWMGWINTYTGEPTYADDFKGRFAFSLETSASTAYLQINNLKNEDMATYFCARAYGNSAWFAYWGQGTLVTVSA VL: QIVLSQSPAILSASPGEKVTMTCRASSSVSYMHWYQQKPGSSPKPWIYATSNLASGVPARFSGSGSGTSYSLTISRVEAEDAATYYCQQWSSNPWTFGGGTKLEIK | – | 190 nM | 0.0013 s⁻¹ | 6600 M⁻¹ s⁻¹ | 18 | 95.2 | no binding | – | –
6A-17 (antibody, V domains shown, Mouse hybridoma antibody, tested as hybridoma supernatant (mouse IgG, detected or captured via anti-mouse IgG Fc); also called anti-MS4A6A antibody 6A-17) VH: QVQLKESGPGLVAPSQSLSITCTISGFSLTSYGVHWVRQPPGKGLEWLVVIWSDGSTTYNSALKSRLSISKDNSKSQVFLKMNGLQTDDTAMYYCARHRGNYPYYTMDYWGQGTSVTVSS VL: DIQMTQTTSSLSASLGDRVTISCRASQDISNYLNWYQQKPDGTVKLLIYYTSVLHSGVPSRFSGSGSGTDYSLTISNLEQEDIATYFCQQGNTLPWTFGGGTKLEIK | – | – | – | – | 19.3 | 178 | no binding | no binding | no binding (tested: 2000 nM)
6A-20 (antibody, V domains shown, Mouse hybridoma antibody (SJL mouse), tested as hybridoma supernatant (mouse IgG, detected or captured via anti-mouse IgG Fc); also called anti-MS4A6A antibody 6A-20) VH: EVQLQQSGPELVKPGASVKMSCKASGYTFTDYFMKWVKQSHGKSLEWIGDINPKNGDTFYNQKFKGKATLTVDKSSSTAYMQLNSLTSEDSAVYYCARPGYFDVWGAGTTVTVSS VL: DIVMTQAAPSVPVTPGESVSISCRSSKSLLHSDGNTYLYWFLQRPGQSPQLLIYRMSNLAPGVPDRFSGSGSGTAFTLRISRVEAEDVGVYYCMQHLEFPFIFGAGTKLELK | – | – | – | – | – | – | no binding | no binding | no binding (tested: 2000 nM)
